Positions count from the first letter of the chain named. In names and notes the source's numbering stands.
T1: His-tagged full-length S. pombe Apn2 with Asn at position 254 (His-Apn2^N254) (S. pombe, UniProt P87175 1-523)
T1 sequence (looked up): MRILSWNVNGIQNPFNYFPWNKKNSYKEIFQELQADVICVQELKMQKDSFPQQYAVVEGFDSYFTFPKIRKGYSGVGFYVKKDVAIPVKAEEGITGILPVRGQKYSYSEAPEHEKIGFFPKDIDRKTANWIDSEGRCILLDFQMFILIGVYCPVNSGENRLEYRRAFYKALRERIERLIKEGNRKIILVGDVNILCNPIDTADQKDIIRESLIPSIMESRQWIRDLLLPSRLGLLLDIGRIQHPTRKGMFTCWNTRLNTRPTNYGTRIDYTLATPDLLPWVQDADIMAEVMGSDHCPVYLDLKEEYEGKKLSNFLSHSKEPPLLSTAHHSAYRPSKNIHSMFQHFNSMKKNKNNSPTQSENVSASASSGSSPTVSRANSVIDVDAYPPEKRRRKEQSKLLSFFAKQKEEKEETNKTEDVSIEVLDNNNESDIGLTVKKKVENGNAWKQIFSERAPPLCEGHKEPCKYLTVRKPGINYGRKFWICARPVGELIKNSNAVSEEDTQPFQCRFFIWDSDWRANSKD

T2: His-tagged full-length SpApn2^N254/S295, catalytically inactive mutant (His-Apn2^S295) (S. pombe, UniProt P87175 1-523, H295S)
T2 sequence (looked up): T1 sequence (looked up) with H295S

B1: GST fusion of S. pombe Myh1(245-461) (domain or fragment, UniProt Q10159 245-461, looked up)
chain: YQEQNVIRDGNTIKYDIEDVPCNICITDIPSKEDLQNWVVARYPVHPAKTKQREERALVVIFQKTDPSTKEKFFLIRKRPSAGLLAGLWDFPTIEFGQESWPKDMDAEFQKSIAQWISNDSRSLIKKYQSRGRYLHIFSHIRKTSHVFYAIASPDIVTNEDFFWISQSDLEHVGMCELGLKNYRAALEIKKRKVTSLSNFKEPKLTSARRIVTKAEC
B2: GST fusion of S. pombe Myh1(I261A) (enzyme, UniProt Q10159 1-461, looked up)
chain: MSDSNHSLDLHSYTQLEVERFRESLIQFYDKTKRILPWRKKECIPPSEDSPLEDWEQPVQRLYEVLVSEIMLQQTRVETVKRYYTKWMETLPTLKSCAEAEYNTQVMPLWSGMGFYTRCKRLHQACQHLAKLHPSEIPRTGDEWAKGIPGVGPYTAGAVLSIAWKQPTGIVDGNVIRVLSRALAIHSDCSKGKANALIWKLANELVDPVRPGDFNQALMELGAITCTPQSPRCSVCPISEICKAYQEQNVIRDGNTIKYDAEDVPCNICITDIPSKEDLQNWVVARYPVHPAKTKQREERALVVIFQKTDPSTKEKFFLIRKRPSAGLLAGLWDFPTIEFGQESWPKDMDAEFQKSIAQWISNDSRSLIKKYQSRGRYLHIFSHIRKTSHVFYAIASPDIVTNEDFFWISQSDLEHVGMCELGLKNYRAALEIKKRKVTSLSNFKEPKLTSARRIVTKAEC
B3: GST fusion of intact wild-type S. pombe Myh1 (GST-Myh1) (enzyme, UniProt Q10159 1-461, looked up)
chain: B2 chain with A261I
B4: His- and maltose binding protein (MBP)-tagged SpApn2 residues 1-303 (His-MBP-Apn2^1-303) (domain or fragment, S. pombe, UniProt P87175 1-303, looked up)
chain: MRILSWNVNGIQNPFNYFPWNKKNSYKEIFQELQADVICVQELKMQKDSFPQQYAVVEGFDSYFTFPKIRKGYSGVGFYVKKDVAIPVKAEEGITGILPVRGQKYSYSEAPEHEKIGFFPKDIDRKTANWIDSEGRCILLDFQMFILIGVYCPVNSGENRLEYRRAFYKALRERIERLIKEGNRKIILVGDVNILCNPIDTADQKDIIRESLIPSIMESRQWIRDLLLPSRLGLLLDIGRIQHPTRKGMFTCWSTRLNTRPTNYGTRIDYTLATPDLLPWVQDADIMAEVMGSDHCPVYLDLK
B5: His-tagged full-length S. pombe Apn2 with Ser at position 254 (His-Apn2^S254) (enzyme, UniProt P87175 1-523, looked up)
chain: T1 sequence (looked up) with N254S

Key:
Assay in all cases: pull-down
[1] = molecular target: T1, His-tagged full-length S. pombe Apn2 …
[2] = molecular target: T2, His-tagged full-length …
[3] = molecular target: B3
[4] = molecular target: B1

## B1
[1]
  binding result: binds

## B2
[1]
  binding result: binds

## B3
[2]
  binding result: binds
[1]
  binding result: binds

## B4
[3]
  binding result: binds

## B5
[4]
  fold weaker interaction than intact Myh1: 2 fold

From paper PMC3967872 (DNA repair, 2014)
